Data: US20240010735A1 (EISAI R AND D MANAGEMENT, published 2024)

Key:
Assay in all cases: ELISA: Fc-His proteins (1 nM) captured on anti-6-His antibody, antibody A 10 µg/mL with human IgG 100 µg/mL, HRP anti-mouse IgG, OD450 as % of mouse EphA4-Fc-His
[1] = molecular target: T1, mouse EphB2 extracellular region-Fc-His protein (mouse; human, UniProt P54763 19-543)
T1 construct: extracellular domain; not shown: Fc region of human IgG1; histidine tag
T1 sequence (looked up): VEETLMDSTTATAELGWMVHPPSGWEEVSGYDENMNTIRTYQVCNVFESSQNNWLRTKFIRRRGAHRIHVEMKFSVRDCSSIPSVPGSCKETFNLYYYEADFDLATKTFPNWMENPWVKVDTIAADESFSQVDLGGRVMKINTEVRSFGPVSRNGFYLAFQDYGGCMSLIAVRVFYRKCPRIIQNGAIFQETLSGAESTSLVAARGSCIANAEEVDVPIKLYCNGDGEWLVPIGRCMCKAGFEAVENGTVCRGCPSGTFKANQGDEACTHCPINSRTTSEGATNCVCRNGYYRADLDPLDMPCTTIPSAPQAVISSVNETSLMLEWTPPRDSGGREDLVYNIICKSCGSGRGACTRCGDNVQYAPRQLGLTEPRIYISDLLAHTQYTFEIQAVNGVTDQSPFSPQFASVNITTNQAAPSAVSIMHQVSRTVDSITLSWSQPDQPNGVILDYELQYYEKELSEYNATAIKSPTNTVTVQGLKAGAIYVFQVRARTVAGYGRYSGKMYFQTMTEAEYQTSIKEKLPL
Method: (§1) Rabbit anti-6-His antibodies (Bethyl Laboratories) were coated onto the wells of a 96-well plate (Nunc). After incubating at 4° C. overnight, the wells were blocked at room temperature for 1 hour by 1% Block Ace (DS Pharma Biomedical). After washing 3 times with 0.05% Tween 20/PBS (Thermo […]), each Eph receptor of mouse extracellular region-Fc-His protein (final concentration 1 nM) was seeded into each well, and incubated at room temperature for 1 hour. After washing 3 times, human IgG solution (100 μg/mL, Sigma) and antibody A (10 μg/mL) were supplemented to the wells, and incubated at room temperature for 1 hour. Horseradish peroxidase-labeled donkey anti-mouse IgG antibody (Jackson ImmunoResearch Laboratories) was added, and incubated at room temperature for 1 hour. After washing 3 times, TMBZ (3,3′,5,5′-tetramethylbenzidine, Sigma) solution was added to the wells, and upon confirmation of modest coloring, an equal amount of quenching solution (1 N H₂SO₄, Wako Pure Chemicals) was added to the wells, and absorbance at 450 nm was read by a microplate reader (PerkinElmer).

[2] = molecular target: T2, mouse EphA10 extracellular region-Fc-His protein (mouse; human, UniProt Q8BYG9 23-565)
T2 construct: extracellular domain; not shown: Fc region of human IgG1; histidine tag
T2 sequence (looked up): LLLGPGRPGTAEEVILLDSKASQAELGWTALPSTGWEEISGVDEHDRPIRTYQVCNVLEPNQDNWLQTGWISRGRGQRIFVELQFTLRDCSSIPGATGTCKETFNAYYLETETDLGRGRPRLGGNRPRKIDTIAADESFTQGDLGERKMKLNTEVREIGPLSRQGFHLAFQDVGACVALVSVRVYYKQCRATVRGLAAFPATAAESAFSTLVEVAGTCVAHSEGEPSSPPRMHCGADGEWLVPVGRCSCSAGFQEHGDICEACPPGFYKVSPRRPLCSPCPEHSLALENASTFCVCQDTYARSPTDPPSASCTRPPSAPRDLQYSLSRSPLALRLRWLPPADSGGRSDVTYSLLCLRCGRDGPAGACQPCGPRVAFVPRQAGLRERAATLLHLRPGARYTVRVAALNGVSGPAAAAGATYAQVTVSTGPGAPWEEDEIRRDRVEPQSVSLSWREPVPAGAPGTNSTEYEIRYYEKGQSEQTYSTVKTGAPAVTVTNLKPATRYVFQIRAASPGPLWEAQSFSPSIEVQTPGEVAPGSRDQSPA
Method: as §1

[3] = molecular target: T3, mouse EphA1 extracellular region-Fc-His protein (mouse; human, UniProt Q60750 27-548)
T3 construct: extracellular domain; not shown: Fc region of human IgG1; histidine tag
T3 sequence (looked up): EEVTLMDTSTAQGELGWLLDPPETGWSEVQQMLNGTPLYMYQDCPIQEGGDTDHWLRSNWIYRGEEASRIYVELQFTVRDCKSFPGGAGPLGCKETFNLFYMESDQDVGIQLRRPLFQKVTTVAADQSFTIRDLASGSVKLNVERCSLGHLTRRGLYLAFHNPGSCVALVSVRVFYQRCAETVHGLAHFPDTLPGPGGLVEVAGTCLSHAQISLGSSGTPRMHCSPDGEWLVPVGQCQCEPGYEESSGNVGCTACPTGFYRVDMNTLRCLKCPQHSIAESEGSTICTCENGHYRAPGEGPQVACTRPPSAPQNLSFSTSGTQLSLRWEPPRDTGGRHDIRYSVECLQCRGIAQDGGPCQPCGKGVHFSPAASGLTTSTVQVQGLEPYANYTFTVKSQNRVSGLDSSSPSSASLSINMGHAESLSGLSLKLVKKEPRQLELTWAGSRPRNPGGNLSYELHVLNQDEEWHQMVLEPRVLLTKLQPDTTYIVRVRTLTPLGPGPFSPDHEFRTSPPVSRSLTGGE
Method: as §1

Measured: binding result

B1: mouse anti-EphA4 monoclonal antibody (antibody A) (antibody, mouse IgG1, kappa, V domains shown)
VH: QVQLKQSGPSLVQPSQSLSITCTVSGFSLTRYGVHWVRQSPGKGLEWLGVIWRGGSTDYNAAFMSRLSITKDNSKSQVFFKMNSLQADDTAIYYCAKESLFGVYYDYGYYSMDYWGQGTSVTVSS
VL: DIQMTQSPSSLSASLGERVSLTCRASQEISGYLSWLQQKPDGTIKRLIYAASTLDSGVPKRFSGSRSGSDYSLTISSLESEDFADYYCLQYASYPLTFGAGTKLELKR
notes: purified from hybridoma supernatant
no binding (tested: 10 µg/mL): all assays above
